Target: the molecule itself
Assay: SEC-MALS; SEC with right- and low-angle laser light scattering detectors (SEC-RALLS/LALLS, OMNISEC), Superdex 200 Increase 10/300 GL, 150 μg of protein injected per run, 25 °C, 0.5 ml/min, 20 mM HEPES, pH 7.5, 100 mM NaCl; dimer to monomers

| Protein | stoichiometry N |
| --- | --- |
| EpEX (EpCAM extracellular part, residues 24-265, with mutated N-glycosylation sites N74Q, N111Q and N198Q) (domain or fragment, human, Epithelial cell adhesion molecule (EpCAM, CD326), human, extracellular part EpEX, residues 24-265, N-glycosylation sites mutated; residues translated from the XhoI scar, between K265 and the His6-tag; in solution it is a dimer in equilibrium with a small amount of monomer; also called wild type-like EpEX; non-glycosylated EpEX variant; source: Sf9 insect cells (baculovirus), culture supernatant, …) QEECVCENYKLAVNCFVNNNRQCQCTSVGAQNTVICSKLAAKCLVMKAEMQGSKLGRRAKPEGALQNNDGLYDPDCDESGLFKAKQCQGTSMCWCVNTAGVRRTDKDTEITCSERVRTYWIIIELKHKAREKPYDSKSLRTALQKEITTRYQLDPKFITSILYENNVITIDLVQQSSQKTQNDVDIADVAYYFEKDVKGESLFHSKKMDLTVNGEQLDLDPGQTLIYYVDEKAPEFSMQGLKLE | 2 |
| EpEX L264C (domain or fragment, human, disulfide bond between the introduced cysteine residues (C264) of the two subunits, residues translated from the XhoI scar, between K265 and the His6-tag; Derived from m1; the protein is a constitutive dimer of two subunits linked by a disulfide; PDB 4mzv is the parent EpEX; also called disulfide-stabilized dimeric form; covalently stabilized EpEX dimer; source: Sf9 insect cells (baculovirus), culture supernatant, purified (His-tag column, ion exchange, SEC); not shown: His6, …) QEECVCENYKLAVNCFVNNNRQCQCTSVGAQNTVICSKLAAKCLVMKAEMQGSKLGRRAKPEGALQNNDGLYDPDCDESGLFKAKQCQGTSMCWCVNTAGVRRTDKDTEITCSERVRTYWIIIELKHKAREKPYDSKSLRTALQKEITTRYQLDPKFITSILYENNVITIDLVQQSSQKTQNDVDIADVAYYFEKDVKGESLFHSKKMDLTVNGEQLDLDPGQTLIYYVDEKAPEFSMQGCKLE | 2 |

Source: publication PMC8142927, “Destabilization of EpCAM dimer is associated with increased susceptibility towards cleavage by TACE” (PeerJ, 2021)
